From patent US20190367612A1 (Daiichi Sankyo, published 2019)
Bridge positions count the residues as written; N and C are the ends. Ends that are not written are not given here. * marks the point of attachment. Biotin = O=C1N[C@H]2[C@H](CS[C@H]2CCCCC(=O)*)N1

T1: amino-terminal peptide of cynomolgus monkey GPRC5D …(Biotin)-NH2 (cynomolgus monkey, C-terminal lysine carrying biotin, C-terminal amide)
T1 construct: also called amino-terminal peptide of biotinylated cynomolgus monkey GPRC5D
T1 peptide: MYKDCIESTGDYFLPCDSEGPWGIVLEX

B1: rat anti-GPRC5D antibody 2B1 (antibody, V domains shown)
VH: QVTLKESGPGILQPSQTLSLTCTFSGFSLNTYDMGVGWIRQPSGKGLEWLANIWWDDDKYYNPSLRNRLTISKDTSNNQAFLKITNVDTADTATYYCARIETVRVSRKGFAHWGQGTLVTVSS
VL: ETVMTQSPTSMSTSIGERVTLNCKASQSVGINVDWYQQTPGQSPKLLIYGASNRHTGVPDRFTGSGFGRDFTLTISNVEAEDLAVYYCLQHGSIPPTFGGGTKLELK
notes: Rat IgG2b, kappa chain
B2: human antibody C3048 scFv (scFv)
scFv: QVQLVQSGAEVKKPGSSVKVSCKASGGTFSRYAISWVRQAPGQGLEWMGGIIPIFGTANYAQKFQGRVTITADQSTRTAYMDLGRLRSEDTAVYYCALEGFRDSLKRNPFDIWGQGTMVTVSSGGGGSGGGGSGGGGSQSVVTQPPSVSAAPGQKVTISCSGGTTNIGSNYVSWYQQLPGTAPKFLMYENNKRPSGIPDRFSGSKSGTSATLAITGLQTGDEATYYCSTWDSSLNTGLFGGGTKLTVL
notes: also called C3048 antibody scFv; not shown: FLAG and His tags at the carboxyl terminus
B3: human GPRC5D amino-terminal peptide MYKDCIESTGDYFLLCDAEGPWGIILE-K(Biotin)-NH2, having an intramolecular disulfide bond (peptide)
peptide: MYKDCIESTGDYFLLCDAEGPWGIILEK(Biotin)-NH2
modifications: disulfide 5-16 (inferred)
notes: Peptide Institute synthetic peptide; also called amino-terminal peptide of biotinylated human GPRC5D (disulfide bond present)
B4: human GPRC5D amino-terminal peptide …(Biotin)-NH2, lacking an intramolecular disulfide bond (peptide)
peptide: MYKDCIESTGDYFLLCDAEGPWGIILE(Biotin)-NH2
modifications: cysteine pairing not given here
notes: Sigma-Aldrich synthetic peptide; also called amino-terminal peptide of human GPRC5D (disulfide bond absent)

How the values were obtained:
[1] = molecular target: T2, human GPRC5D (human, UniProt Q9NZD1 1-345); assay: flow cytometry, KHM-1B cells
T2 construct: whole, on cells; also called hGPRC5D; G-protein coupled receptor family C group 5 member D
Protocol: Human multiple myeloma cell line KHM-1B cells (JCRB Cell Bank) expressing GPRC5D were adjusted to a concentration of 5×10⁶ cells/mL with PBS containing 5% FBS, inoculated in an amount of 100 μL/well to a 96-well U-bottomed microplate, and centrifuged to remove a supernatant. Each rat anti-GPRC5D antibody (2A4, 2B1, and 7B4) adjusted to 0.32 ng/mL to 10 μg/mL in Example 1)-7 was added thereto in an amount of 100 μL/well, and the plate was left standing at 4° C. for 1 hour. The cells were washed twice with PBS containing 5% FBS. Then, PE Goat Anti-Rat Ab (Becton, Dickinson and Company) diluted 100-fold with PBS containing 5% FBS was added thereto at a concentration of 100 μL/well, and the plate was left standing at 4° C. for 1 hour. The cells were washed twice with PBS containing 5% FBS and then resuspended in PBS containing 5% FBS, followed by detection using a flow cytometer (FACSCanto™ II; Becton, Dickinson and Company). The data was analyzed using Flowjo (Tree Star, Inc.). The PE fluorescence intensity of the cell fraction was plotted to a histogram, and the mean fluorescence intensity (MFI) was calculated.

[2] = molecular target: T2, human GPRC5D; assay: flow cytometry, KMS-34 cells
[3] = molecular target: B3; assay: ELISA, immobilised biotinylated peptide with disulfide bond
Description: (§1) Epitopes bound by the obtained rat anti-GPRC5D antibodies (2A4, 2B1, and 7B4) were identified using a human GPRC5D amino-terminal peptide […](Biotin)-NH₂ (Sigma-Aldrich Corp.) (SEQ ID NO: 1 of the Sequence Listing; FIG. 2) having a biotinylated carboxy-terminal peptide and lacking an intramolecularly formed disulfide bond, and a human GPRC5D amino-terminal peptide […]-K(Biotin)-NH₂ (Peptide Institute, Inc.) (SEQ ID NO: 2 of the Sequence Listing; FIG. 3) having a lysine-containing biotinylated carboxy terminus and having an intramolecularly formed disulfide bond. Each peptide diluted with PBS was added to Nunc Immobilizer (Thermo Fisher Scientific Inc.), and the plate was left standing at room temperature for 1 hour. After washing three times with PBST, […] containing 1% BSA was added thereto, and the plate was left standing at room temperature for 1 hour. After washing three times with PBST, each rat anti-GPRC5D antibody (2A4, 2B1, and 7B4) prepared in Example 1)-7 and diluted to 0.1 ng/mL to 1 μg/mL with PBS was added thereto, and the plate was left standing at room temperature for 1 hour. […] After washing three times with PBST, SuperSignal™ ELISA Pico Chemiluminescent Substrate (Thermo Fisher Scientific Inc.) was added thereto, and the luminescence was measured using a plate reader (ENVISION; PerkinElmer, Inc.).

[4] = molecular target: B4; assay: ELISA, immobilised biotinylated peptide without disulfide bond
Description: as §1

[5] = molecular target: T2, human GPRC5D; assay: flow cytometry on KMS-34 cells (endogenous human GPRC5D), anti-FLAG antibody and Alexa 488 anti-mouse IgG detection
Protocol: The KMS-34 cells were recovered by centrifugation, washed twice with a FACS buffer (PBS containing 0.5% BSA and 2 mM EDTA, pH 7.4), and then suspended in the same solution as above. The C2037, C3048, C3015 or C3022 scFv was added to the obtained cell suspension, and the mixture was left standing at 4° C. for 2 hours. After washing twice with a FACS buffer, the cells were suspended by the addition of an anti-FLAG antibody (Sigma-Aldrich Corp.), and the mixture was further left standing at 4° C. for 1 hour. After washing twice with a FACS buffer, the cells were suspended by the addition of Alexa 488-labeled anti-mouse IgG antibody (Jackson ImmunoResearch Laboratories, Inc.), and the mixture was further left standing at 4° C. for 1 hour. After washing twice with a FACS buffer, the cells were fixed in 1% PFA (prepared from a 32% paraformaldehyde solution (Electron Microscopy Sciences)), followed by detection using a flow cytometer (FACSCanto™ II; Becton, Dickinson and Company). The data was analyzed using Flowjo (Tree Star, Inc.).

[6] = molecular target: B3; assay: SPR (Biacore T200), kinetic analysis: biotinylated amino-terminal peptide of human GPRC5D on Sensor Chip CAP, scFv as analyte
Protocol: The binding activity of the anti-GPRC5D antibodies against the amino-terminal peptide of human GPRC5D was tested by SPR using Biacore T200. The amino-terminal peptide of biotinylated human GPRC5D diluted to 2 nM with HBS-EP+ (manufactured by GE Healthcare Bio-Sciences Corp.) was immobilized on Sensor Chip CAP (manufactured by GE Healthcare Bio-Sciences Corp.) by contact at a rate of 10 μL/min for 180 seconds. Then, Kd was calculated by kinetic analysis using a plurality of concentrations of each scFv diluted with HBS-EP+ as analytes.

[7] = molecular target: B3; assay: ELISA, chemiluminescence: biotinylated amino-terminal peptide of human GPRC5D on NeutrAvidin, scFv detected with HRP anti-FLAG antibody
Protocol: (§2) NeutrAvidin diluted to 1 μg/mL with PBS was added in an amount of 50 μL/well to 96-well Maxi-sorp plate (Black, Nunc/Thermo Fisher Scientific Inc.), and the plate was left standing overnight at 4° C. for immobilization. After washing three times with an ELISA buffer, the amino-terminal peptide of the biotinylated human or cynomolgus monkey GPRC5D (used in Example 10)-1) diluted to 1 μg/mL with PBS was added thereto, and the plate was shaken at room temperature for 1 hour. After washing three times with an ELISA buffer, the plate was blocked with Blocker Casein and washed three times with an ELISA buffer. Then, the C2037, C3048, C3015, or C3022 scFv was added to the plate and reacted at room temperature for 2 hours. After washing three times with an ELISA buffer, a horseradish peroxidase (HRP)-labeled anti-FLAG antibody diluted 5000-fold with an ELISA buffer was added thereto in an amount of 50 μL/well and reacted at room temperature for 1 hour. After washing five times with an ELISA buffer, SuperSignal Pico ELISA Chemiluminescent substrate was added. After 10 minutes, the chemiluminescence was measured using a plate reader.

[8] = molecular target: T1, amino-terminal peptide of cynomolgus …; assay: ELISA, chemiluminescence: biotinylated amino-terminal peptide of cynomolgus monkey GPRC5D on NeutrAvidin, scFv detected with HRP anti-FLAG antibody
Protocol: as §2

[9] = molecular target: T3, rat anti-GPRC5D antibody 2A4; assay: flow cytometry competition on KMS-34 cells: the peptide with the intramolecular disulfide bond is added together with a fixed amount of 2A4; readout: binding of 2A4 to human GPRC5D on the cells
T3 construct: Rat IgG2b, kappa chain
Protocol: (§3) Human multiple myeloma cell line KMS-34 cells expressing GPRC5D were adjusted to a concentration of 2×10⁶ cells/mL with PBS containing 5% FBS, inoculated in an amount of 100 μL/well to a 96-well U-bottomed microplate, and centrifuged to remove a supernatant. Each rat anti-GPRC5D antibody (2A4, 2B1, and 7B4) adjusted to 7.5 μg/mL in Example 1)-7, or Rat IgG2b isotype control antibody (Medical & Biological Laboratories Co., Ltd. (MBL)) was added thereto in an amount of 100 μL/well. The two types of peptides used in Example 2)-2-1 were each adjusted to 17 ng/mL to 34 μg/mL with PBS and added in an amount of 100 μL/well to the wells containing the antibody dilution, and the plate was left standing at 4° C. for 1 hour. The cells were washed twice with PBS containing 5% FBS. Then, PE Goat Anti-Rat Ab (Becton, Dickinson and Company) diluted 100-fold with PBS containing 5% FBS was added thereto in an amount of 100 μL/well, and the plate was left standing at 4° C. for 1 hour. The cells were washed twice with PBS containing 5% FBS and then resuspended in PBS containing 5% FBS, followed by detection using a flow cytometer (FACSCanto™ II; Becton, Dickinson and Company). The data was analyzed using Flowjo (Tree Star, Inc.). The PE fluorescence intensity of the cell fraction was plotted to a histogram, and the mean fluorescence intensity (MFI) was calculated. […]

[10] = molecular target: B1; assay: flow cytometry competition on KMS-34 cells: the peptide with the intramolecular disulfide bond is added together with a fixed amount of 2B1; blocked: binding of 2B1 to human GPRC5D on the cells
Protocol: as §3

[11] = molecular target: T4, rat anti-GPRC5D antibody 7B4; assay: flow cytometry competition on KMS-34 cells: the peptide with the intramolecular disulfide bond is added together with a fixed amount of 7B4; readout: binding of 7B4 to human GPRC5D on the cells
T4 construct: Rat IgG2b, kappa chain
Protocol: as §3

[12] = molecular target: T3, rat anti-GPRC5D antibody 2A4; assay: flow cytometry competition on KMS-34 cells: the peptide without the intramolecular disulfide bond is added together with a fixed amount of 2A4; readout: binding of 2A4 to human GPRC5D on the cells
Protocol: as §3

[13] = molecular target: B1; assay: flow cytometry competition on KMS-34 cells: the peptide without the intramolecular disulfide bond is added together with a fixed amount of 2B1; blocked: binding of 2B1 to human GPRC5D on the cells
Protocol: as §3

[14] = molecular target: T4, rat anti-GPRC5D antibody 7B4; assay: flow cytometry competition on KMS-34 cells: the peptide without the intramolecular disulfide bond is added together with a fixed amount of 7B4; readout: binding of 7B4 to human GPRC5D on the cells
Protocol: as §3

T4 sequence (VH, as listed by the source, chain 1 of 2): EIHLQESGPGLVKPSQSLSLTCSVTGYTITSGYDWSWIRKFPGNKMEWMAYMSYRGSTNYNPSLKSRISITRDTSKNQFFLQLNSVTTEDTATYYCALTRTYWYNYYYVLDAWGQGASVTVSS
T4 sequence (VL, as listed by the source, chain 2 of 2): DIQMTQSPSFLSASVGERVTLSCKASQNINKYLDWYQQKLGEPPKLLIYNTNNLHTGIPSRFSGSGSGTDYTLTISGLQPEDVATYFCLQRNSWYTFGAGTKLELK
T3 sequence (VH, as listed by the source, chain 1 of 2): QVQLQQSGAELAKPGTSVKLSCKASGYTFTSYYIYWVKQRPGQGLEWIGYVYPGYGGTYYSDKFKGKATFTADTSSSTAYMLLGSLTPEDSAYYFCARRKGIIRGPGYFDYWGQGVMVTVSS
T3 sequence (VL, as listed by the source, chain 2 of 2): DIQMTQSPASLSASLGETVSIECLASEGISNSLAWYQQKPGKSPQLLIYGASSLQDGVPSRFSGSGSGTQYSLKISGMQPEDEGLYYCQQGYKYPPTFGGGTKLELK

Binder: B1
Kd [1]: 14.8 nM | MFI (max) [1]: 2390 | Kd [2]: 12.7 nM | MFI (max) [2]: 3160 | binding result [3]: binds | binding result [4]: binds

Binder: B2
EC50 (read off the curve) [5]: ~10 nM | Kd [6]: 0.36 nM | EC50 (read off the curve) [7]: ~3 nM | binding result [8]: binds

Binder: B3
binding result [9]: no binding (tested: 5000 nM) | IC50 (read off the curve) [10]: ~50 nM | binding result [11]: no binding (tested: 5000 nM)

Binder: B4
binding result [12]: no binding (tested: 5000 nM) | IC50 (read off the curve) [13]: ~50 nM | binding result [14]: no binding (tested: 5000 nM)
